Assay [1] concerns the target T1, human PCSK9 with a C-terminal myc-myc-hexahistidine tag (human, UniProt Q8NBP7 31-692, limits assumed).
T1 construct: also called hPCSK9-mmH; hPCSK9-mmh; not shown: C-terminal myc-myc-hexahistidine tag
Nature of the assay: SPR 25C, purified mAb captured.

Assay [2] concerns the target T1, human PCSK9 with a C-terminal …. Nature of the assay: SPR 25C pH 7.4, purified mAb captured.
Method: (§1) A Biacore CM4 sensor chip was derivatized with a monoclonal mouse anti-human Fc antibody to capture human antibodies. The histidine substitution variant anti-PCSK9 antibodies were captured onto the anti-human Fc sensor surface from culture medium after transient expression in Chinese hamster ovary (CHO) cells. […] Kinetic association (kₐ) and dissociation (kd) rate constants were determined by processing and fitting the data to a 1:1 binding model using Scrubber 2.0 curve fitting software. Binding dissociation equilibrium constants (KD) and dissociative half-lives (t_{1/2}) were calculated from the kinetic rate constants as: KD (M)=kd/kₐ; and t_{1/2} (min)=(In2/(60*kd).
All measurements were taken at 25° C.
For assay [3] the target is unchanged. As to the kind of experiment: SPR 25C pH 6.0, purified mAb captured.
Method: as §1
Also included in these experiments were several control/comparator antibodies. All measurements were taken at 25° C.
The target is the same in assay [4]. As to the kind of experiment: blocking ELISA pH 7.2, 500 pM hPCSK9-mmH vs coated hLDLR EGFA-hFc. For orientation: An ELISA detects its analyte on a solid surface through an enzyme-linked reagent.
Method: (§2) Briefly, hLDLR EGFA-hFc was coated at 2 μg/mL in PBS on a 96-well microtiter plate overnight at 4° C. followed by blocking with a solution of 0.5% (w/v) BSA in PBS.
(§3) The equilibrated sample solutions were then transferred to a LDLR EGFA-hFc coated plate.
Assay [5] has the same target. As to the kind of experiment: blocking ELISA pH 7.2, 500 pM hPCSK9-mmH vs coated hLDLR EGFA-hFc, exp #2.
From the text: The equilibrated sample solutions were then transferred to the LDLR EGFA-hFc coated plate prepared as described above.
Assay [6] has the same target. Nature of the assay: blocking ELISA, hPCSK9-mmH vs coated hLDLR EGFA-hFc; non-blocking at pH 5.75.
Method: as §2, §3
Assay [7] has the same target. Nature of the assay: SPR (Biacore), 37 °C; antibody captured on anti-human Fc surface, hPCSK9-mmH injected (3.125-50 nM); association at pH 7.4, dissociation at pH 6.0.
Method: (§4) A Biacore CM4 sensor chip was derivatized with a Fab′2 polyclonal anti-human Fc antibody to capture human antibodies. […] Dissociation (kd) rate constants were determined by processing and fitting the data using Scrubber version 2.0 curve fitting software. Dissociative half-lives (t_{1/2}) were calculated from the dissociation rate constants as: t_{1/2} (min)=(In2/kd)/60.
For assay [8] the target is unchanged. As to the kind of experiment: SPR (Biacore), 37 °C; antibody captured on anti-human Fc surface, hPCSK9-mmH injected (3.125-50 nM); association at pH 7.4, dissociation at pH 7.2. (In general: In SPR one partner is held on a chip, and binding of the other changes the refractive index at the surface.)
Method: All experiments were carried out at 37° C.
as §4
Assay [9] has the same target. Nature of the assay: SPR (Biacore), 37 °C; antibody captured on anti-human Fc surface, hPCSK9-mmH injected (3.125-50 nM); association at pH 7.4, dissociation at pH 7.4.
Method: as §4
The target is the same in assay [10]. Nature of the assay: SPR (Biacore), 37 °C; antibody captured on anti-human Fc surface, hPCSK9-mmH injected (3.125-50 nM); association at pH 7.4, dissociation at pH 5.75.
Method: as §4
Assay [11] shares this target. Nature of the assay: cell-based or functional assay.
Assay [12] shares this target. Nature of the assay: cell-based or functional assay. The source holds these as a separate data set.
The target in assay [13] is human PCSK9 with a C-terminal myc-myc hexahistidine tag and a D374Y mutation (human, UniProt Q8NBP7 31-692, limits assumed). Nature of the assay: cell-based or functional assay.
For assay [14], the target named is recombinant cynomolgus monkey PCSK9 with a C-terminal myc-myc hexahistidine tag (cynomolgus monkey, UniProt A8T662 31-692 (Macaca nemestrina entry), limits assumed). As to the kind of experiment: cell-based or functional assay.
The target in assay [15] is T1, human PCSK9 with a C-terminal …. Nature of the assay: blocking ELISA, hPCSK9-mmH vs coated hLDLR EGFA-hFc.
Method: as §2, §3
Assay [16] shares this target. Nature of the assay: blocking ELISA pH 5.75, 500 pM hPCSK9-mmH vs coated hLDLR EGFA-hFc.
Method: as §2, §3
Assay [17] has the same target. Nature of the assay: blocking ELISA pH 7.2; actual obtained value, below theoretical bottom of the assay.
Method: as §2, §3
For assay [18] the target is unchanged. Nature of the assay: blocking ELISA pH 5.75; actual obtained value, below theoretical bottom of the assay.
Method: as §2, §3
For assay [19] the target is unchanged. As to the kind of experiment: SPR (Biacore), 37 °C; antibody captured on anti-human Fc surface, hPCSK9-mmH injected (3.125-50 nM); association at pH 7.4, dissociation at pH 6.0. This is another data set of the same source.
Method: as §4
For assay [20] the target is unchanged. As to the kind of experiment: SPR (Biacore), 37 °C; antibody captured on anti-human Fc surface, hPCSK9-mmH injected (3.125-50 nM); association at pH 7.4, dissociation at pH 7.2. This is another data set of the same source.
Method: as §4
The target is the same in assay [21]. Nature of the assay: SPR (Biacore), 37 °C; antibody captured on anti-human Fc surface, hPCSK9-mmH injected (3.125-50 nM); association at pH 7.4, dissociation at pH 7.4. This is another data set of the same source.
Method: as §4
Assay [22] shares this target. As to the kind of experiment: SPR (Biacore), 37 °C; antibody captured on anti-human Fc surface, hPCSK9-mmH injected (3.125-50 nM); association at pH 7.4, dissociation at pH 5.75. The source holds these as a separate data set.
Method: as §4

Where only a bound is given, the exact number is not on record here.

The source of these data is patent US20140044730A1 (Regeneron, published 2014).

B1: VH-D106H/VK-L30H (antibody, IgG4, V domains shown)
VH: EMQLVESGGGLVQPGGSLRLSCAASGFTFSSHWMKWVRQAPGKGLEWVANINQDGSEKYYVDSVKGRFTISRDNAKNSLFLQMNSLRAEDTAVYYCARDIVLMVYHMDYYYYGMDVWGQGTTVTVSS
VL: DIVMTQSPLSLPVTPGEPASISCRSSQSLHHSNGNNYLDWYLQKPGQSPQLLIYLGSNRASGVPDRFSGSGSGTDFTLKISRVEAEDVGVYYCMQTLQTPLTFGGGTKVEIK
notes: double His variant of 300N; also called VH-D106/VK-L30H; VH-D016H/VK-L30H
Broadly, the Kd is the concentration at which binding is half-saturated. As usually defined, the koff is a measure of how fast the partners let go of each other. One may read the kon as a measure of how fast the partners come together. In general, t½ refers to the time needed for the level to fall by half in the phase considered. In general, IC50 refers to the point on the concentration scale where inhibition reaches its midpoint. For the molecule B1, in assay [1], the “KD ratio pH 6.0/pH 7.4” value turned out to be 15.7, the “ka ratio pH 6.0/pH 7.4” value was 1.79, the “kd ratio pH 6.0/pH 7.4” value was 28.4 and the “t½ ratio pH 6.0/pH 7.4” value was 0.04. In assay [2], the equilibrium dissociation constant (Kd) was 2.68 nM, the koff amounted to 0.000278 s⁻¹, the kon amounted to 104000 M⁻¹ s⁻¹ and the t½ amounted to 41.5 min. In [3], this molecule showed a Kd of 42.1 nM, a koff of 0.0079 s⁻¹, a kon of 186000 M⁻¹ s⁻¹ and a t½ of 1.5 min. It took 0.354 nM to reach half-maximal inhibition in assay [4] (IC50). This molecule registered an IC50 in [5] of 0.461 nM. Moreover, in assay [6], the “IC50 ratio (pH 5.75/pH 7.2)” value was over 500. For the same molecule, the “t½ (dissociative half-life)” value in assay [7] is 0.2 min. The “t½ (dissociative half-life)” value in assay [8] was determined as 8.9 min. Also, in assay [9], the “t½ (dissociative half-life)” value stood at 8.7 min. Also, the “t½ (dissociative half-life)” value in assay [10] was found to be 0.1 min.

B2: 316P(v1) (antibody, IgG1, V domains shown)
VH: EVQLVESGGGLVQPGGSLRLSCAASGFTFNNYAMNWVRQAPGKGLDWVSTISGSGGTTNYADSVKGRFIISRDSSKHTLYLQMNSLRAEDTAVYYCAKDSNWGNFDLWGRGTLVTVSS
VL: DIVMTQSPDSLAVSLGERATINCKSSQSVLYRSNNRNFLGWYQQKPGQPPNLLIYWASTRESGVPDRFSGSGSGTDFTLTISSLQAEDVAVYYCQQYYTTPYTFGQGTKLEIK
notes: also called 316(v1)
In the case of B2, the “IC50, LDL uptake in HepG2 cells, 100 nM hPCSK9-mmH” value in assay [11] is 31 nM. Further, the “IC50, LDL uptake in HepG2 cells, 50 nM hPCSK9-mmH” value in [12] was determined as 7.8 nM. The “IC50, LDL uptake in HepG2 cells, 2 nM hPCSK9-D374Y-mmH” value in [13] worked out at 2 nM. The “IC50, LDL uptake in HepG2 cells, 50 nM MfPCSK9-mmH” value in assay [14] was 10.3 nM. In assay [1], the “KD ratio pH 6.0/pH 7.4” value worked out at 0.41. Besides, the “ka ratio pH 6.0/pH 7.4” value in assay [1] was determined as 1.3. The “kd ratio pH 6.0/pH 7.4” value in assay [1] was 0.53. Also, the “t½ ratio pH 6.0/pH 7.4” value in [1] came out at 1.89. Also, the Kd turned out to be 0.616 nM in assay [2] and 0.25 nM in assay [3]. For the same molecule, the values for the koff in assay [2] and in assay [3] were 0.000308 s⁻¹ and 0.000162 s⁻¹, respectively. Besides, the values for the kon in assay [2] and in [3] were 499000 M⁻¹ s⁻¹ and 649000 M⁻¹ s⁻¹, respectively. The values for the t½ in assay [2] and in assay [3] were 37.6 min and 71.1 min, respectively. The “IC50 ratio (pH 5.75/pH 7.2)” value in assay [15] worked out at 1.8. Further, the IC50 in assay [4] was under 0.125 nM; in assay [16], under 0.125 nM; in assay [17], 0.064 nM; in assay [18], 0.113 nM. Moreover, the “t½ (dissociative half-life)” value stood at 13 min in [19], 13.8 min in assay [20], 7 min in assay [21] and 27.8 min in assay [22].
